Measurements taken from the supplement of paper PMC7877785.
± gives the uncertainty stated by the source.

Assay: self-splicing fitness, log relative to wild type (ln ratio); higher = more splicing; Tetrahymena group I intron in knt gene, E. coli kanamycin selection, DiMSum; sequences stand for … in CUCUCU…GGAGGGAAAAGUUAUCAGGCAUGCACCUGGUAGCUAGUCUUUAAACCAAUAGAUUGCAUCGGUUUAAAAGGCAAGACCGUCAAAUUGCGGGAAAGGGGUCAACAGCCGUUCAGUACCAAGUCUCAGGGGAAACUUUGAGAUGGCCUUGCAAAGGGUAUGGUAAUAAGCUGACGGACAUGGUCCUAACCACGCAGCCAAGUCCUAAGUCAACAGAUCUUCUGUUGAUAUGGAUGCAGUUCACAGACUAAAUGUCGGUCGGGGAAGAUGUAUUCUUCUCAUAAGAUAUAGUCGGACCUCUCCUUAAUGGGAGCUAGCGGAUGAAGUGAUGCAACACUGGAGCCGCUGGGAACUAAUUUGUAUGCGAAAGUAUAUUGAUUAGUUUUGGAGUACUCGUGGUCG
Summary of the method: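 Colonies from six replicate transformations of E. coli BL21(DE3) were pooled and amplicon-sequenced on an Illumina HiSeq 2500. The library placed an intron with all eight P1ex-region nucleotides randomised inside the knt kanamycin-resistance gene on pET-22b(+), and cells grew overnight at 37°C or 30°C on LB agar with or without 25 μg/mL kanamycin (plus 100 μg/mL carbenicillin, 50 μM IPTG, 0.2% rhamnose). Fitness is the DiMSum error-weighted combination of wild-type-normalised replicate fold changes, kanamycin versus none.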

GCGUAGCAAUAUUACGAAUG
self-splicing fitness (ln) (30 °C): -1.32 ± 0.11 | self-splicing fitness (ln) (37 °C): -0.603 ± 0.13

GCGUAGCAAUAUUACGACAG
self-splicing fitness (ln) (30 °C): -2.66 ± 0.48 | self-splicing fitness (ln) (37 °C): -0.456 ± 0.44

GCGUAGCAAUAUUACGACUU
self-splicing fitness (ln) (30 °C): -0.421 ± 0.11 | self-splicing fitness (ln) (37 °C): 0.154 ± 0.15

GCGUAGCAAUAUUACGAGAG
self-splicing fitness (ln) (30 °C): -3.3 ± 0.28 | self-splicing fitness (ln) (37 °C): -3.27 ± 0.33

GCGUAGCAAUAUUACGAGGU
self-splicing fitness (ln) (30 °C): -2.81 ± 0.36 | self-splicing fitness (ln) (37 °C): -2.62 ± 0.36

GCGUAGCAAUAUUACGCAGU
self-splicing fitness (ln) (30 °C): -4.05 ± 0.34 | self-splicing fitness (ln) (37 °C): -2.28 ± 0.25

GCGUAGCAAUAUUACGCAUU
self-splicing fitness (ln) (30 °C): -2.88 ± 0.2 | self-splicing fitness (ln) (37 °C): -2.58 ± 0.27

GCGUAGCAAUAUUACGCCUG
self-splicing fitness (ln) (30 °C): -4.08 ± 0.42 | self-splicing fitness (ln) (37 °C): -3.13 ± 0.37

GCGUAGCAAUAUUACGCGCG
self-splicing fitness (ln) (30 °C): -3.2 ± 0.26 | self-splicing fitness (ln) (37 °C): -2.42 ± 0.31

GCGUAGCAAUAUUACGCUAU
self-splicing fitness (ln) (30 °C): -4.42 ± 0.42 | self-splicing fitness (ln) (37 °C): -2.46 ± 0.45

GCGUAGCAAUAUUACGCUCU
self-splicing fitness (ln) (30 °C): -3 ± 0.46 | self-splicing fitness (ln) (37 °C): -1.59 ± 0.27

GCGUAGCAAUAUUACGGAAA
self-splicing fitness (ln) (30 °C): -3.29 ± 0.37 | self-splicing fitness (ln) (37 °C): -0.0155 ± 0.18

GCGUAGCAAUAUUACGGAGU
self-splicing fitness (ln) (30 °C): -2.88 ± 0.16 | self-splicing fitness (ln) (37 °C): -1.44 ± 0.14

GCGUAGCAAUAUUACGGAUU
self-splicing fitness (ln) (30 °C): -1.59 ± 0.13 | self-splicing fitness (ln) (37 °C): -0.574 ± 0.15

GCGUAGCAAUAUUACGGCCU
self-splicing fitness (ln) (30 °C): -0.557 ± 0.16 | self-splicing fitness (ln) (37 °C): -0.113 ± 0.25

GCGUAGCAAUAUUACGUACU
self-splicing fitness (ln) (30 °C): -2.08 ± 0.15 | self-splicing fitness (ln) (37 °C): -0.552 ± 0.17

GCGUAGCAAUAUUACGUCCA
self-splicing fitness (ln) (30 °C): -1.49 ± 0.099 | self-splicing fitness (ln) (37 °C): -0.365 ± 0.1

GCGUAGCAAUAUUACGUCCC
self-splicing fitness (ln) (30 °C): -0.245 ± 0.24

GCGUAGCAAUAUUACGUGGG
self-splicing fitness (ln) (30 °C): -3.84 ± 0.22 | self-splicing fitness (ln) (37 °C): -3.04 ± 0.24

GCGUAGCAAUAUUACGUUAA
self-splicing fitness (ln) (30 °C): -2.13 ± 0.23 | self-splicing fitness (ln) (37 °C): -1.74 ± 0.2

GCGUAGCAAUAUUACGUUUC
self-splicing fitness (ln) (30 °C): -4.29 ± 0.34 | self-splicing fitness (ln) (37 °C): -1.83 ± 0.22

GCGUAGCAAUAUUACGUUUU
self-splicing fitness (ln) (30 °C): -3.15 ± 0.14 | self-splicing fitness (ln) (37 °C): -1.8 ± 0.13

GCUAAGCAAUAUUACGAGGA
self-splicing fitness (ln) (30 °C): -1.73 ± 0.11 | self-splicing fitness (ln) (37 °C): -0.693 ± 0.12

GCUAAGCAAUAUUACGCAAC
self-splicing fitness (ln) (30 °C): -2.35 ± 0.42 | self-splicing fitness (ln) (37 °C): -0.352 ± 0.47

GCUAAGCAAUAUUACGCAUA
self-splicing fitness (ln) (30 °C): -1.97 ± 0.11 | self-splicing fitness (ln) (37 °C): -1.5 ± 0.093

GCUAAGCAAUAUUACGCCUG
self-splicing fitness (ln) (30 °C): -0.523 ± 0.16 | self-splicing fitness (ln) (37 °C): -1.55 ± 0.22

GCUAAGCAAUAUUACGGAUU
self-splicing fitness (ln) (30 °C): -1.14 ± 0.068 | self-splicing fitness (ln) (37 °C): -1.12 ± 0.092

GCUAAGCAAUAUUACGGGCA
self-splicing fitness (ln) (30 °C): -1.52 ± 0.098 | self-splicing fitness (ln) (37 °C): -1.11 ± 0.13

GCUAAGCAAUAUUACGGUAG
self-splicing fitness (ln) (30 °C): -3.12 ± 0.21 | self-splicing fitness (ln) (37 °C): -3.35 ± 0.3

GCUAAGCAAUAUUACGGUCU
self-splicing fitness (ln) (30 °C): -0.772 ± 0.083 | self-splicing fitness (ln) (37 °C): -1.06 ± 0.085

GCUAAGCAAUAUUACGUAAU
self-splicing fitness (ln) (30 °C): -0.775 ± 0.088 | self-splicing fitness (ln) (37 °C): -0.189 ± 0.11

GCUAAGCAAUAUUACGUCGA
self-splicing fitness (ln) (30 °C): -1.21 ± 0.11 | self-splicing fitness (ln) (37 °C): -0.619 ± 0.15

GCUAAGCAAUAUUACGUUUA
self-splicing fitness (ln) (30 °C): -2.9 ± 0.24 | self-splicing fitness (ln) (37 °C): -1.69 ± 0.21

GCUAAGCAAUAUUACGUUUG
self-splicing fitness (ln) (30 °C): -2.16 ± 0.09 | self-splicing fitness (ln) (37 °C): -0.954 ± 0.12

GCUCAGCAAUAUUACGAACA
self-splicing fitness (ln) (30 °C): -0.688 ± 0.088 | self-splicing fitness (ln) (37 °C): -0.676 ± 0.1

GCUCAGCAAUAUUACGAAGG
self-splicing fitness (ln) (30 °C): -0.909 ± 0.073 | self-splicing fitness (ln) (37 °C): -0.29 ± 0.1

GCUCAGCAAUAUUACGAAGU
self-splicing fitness (ln) (30 °C): -1.63 ± 0.16 | self-splicing fitness (ln) (37 °C): -0.416 ± 0.15

GCUCAGCAAUAUUACGAAUA
self-splicing fitness (ln) (30 °C): -1.02 ± 0.066 | self-splicing fitness (ln) (37 °C): -0.439 ± 0.072

GCUCAGCAAUAUUACGACUA
self-splicing fitness (ln) (30 °C): -0.565 ± 0.17 | self-splicing fitness (ln) (37 °C): -0.247 ± 0.18

GCUCAGCAAUAUUACGACUU
self-splicing fitness (ln) (30 °C): 0.064 ± 0.085 | self-splicing fitness (ln) (37 °C): -0.0421 ± 0.078

GCUCAGCAAUAUUACGAUAA
self-splicing fitness (ln) (30 °C): -0.805 ± 0.092 | self-splicing fitness (ln) (37 °C): -0.579 ± 0.11

GCUCAGCAAUAUUACGAUGA
self-splicing fitness (ln) (30 °C): -2.09 ± 0.2 | self-splicing fitness (ln) (37 °C): -2.26 ± 0.31

GCUCAGCAAUAUUACGCACA
self-splicing fitness (ln) (30 °C): -1.05 ± 0.1 | self-splicing fitness (ln) (37 °C): 0.0263 ± 0.11

GCUCAGCAAUAUUACGCACC
self-splicing fitness (ln) (30 °C): -1.94 ± 0.23 | self-splicing fitness (ln) (37 °C): 0.598 ± 0.24

GCUCAGCAAUAUUACGCCAA
self-splicing fitness (ln) (30 °C): -1.52 ± 0.42

GCUCAGCAAUAUUACGCCUU
self-splicing fitness (ln) (30 °C): 0.0207 ± 0.11 | self-splicing fitness (ln) (37 °C): 0.141 ± 0.14

GCUCAGCAAUAUUACGCGAU
self-splicing fitness (ln) (30 °C): -2.55 ± 0.15 | self-splicing fitness (ln) (37 °C): -1.51 ± 0.14

GCUCAGCAAUAUUACGCGGG
self-splicing fitness (ln) (30 °C): -3.41 ± 0.2 | self-splicing fitness (ln) (37 °C): -2.78 ± 0.2
